According to article PMC3724804:

Key:
[1] = molecular target: skeletal muscle α-actin (rabbit) (UniProt P68135)
[2] = molecular target: human cytoplasmic γ-actin (human) (UniProt P63261)
[3] = molecular target: human cytoplasmic β-actin (human) (UniProt P60709)
[4] = molecular target: skeletal muscle α-actin (rabbit) (UniProt P68135); remark: listed apart in the source
[5] = molecular target: human cytoplasmic γ-actin (human) (UniProt P63261); remark: listed apart in the source
[6] = molecular target: human cytoplasmic β-actin (human) (UniProt P60709); remark: listed apart in the source
[7] = molecular target: human cytoplasmic γ-actin (human) (UniProt P63261); remark: listed apart in the source

K (app,actin): F-actin concentration for half-maximal activation of steady-state ATPase (NADH-coupled assay, 25°C) [1] | kcat of actin-activated steady-state ATPase [1] | K (app,actin): F-actin concentration for half-maximal activation of steady-state ATPase (NADH-coupled assay, 25°C) [2] | kcat of actin-activated steady-state ATPase [2] | K (app,actin): F-actin concentration for half-maximal activation of steady-state ATPase (NADH-coupled assay, 25°C) [3] | kcat of actin-activated steady-state ATPase [3] | Motility rate: sliding velocity of tropomyosin-decorated F-actin in the in vitro motility assay, 30°C [4] | Motility rate: sliding velocity of tropomyosin-decorated F-actin in the in vitro motility assay, 30°C [5] | Motility rate: sliding velocity of tropomyosin-decorated F-actin in the in vitro motility assay, 30°C [6] | ATP turnover in the flash photolysis experiment (5 µM F-actin), relative to α-actin [7] | kcat of actin-activated steady-state ATPase (activity in the presence of 100 µM F-actin) [1] | kcat of actin-activated steady-state ATPase (activity in the presence of 100 µM F-actin) [2] | kcat of actin-activated steady-state ATPase (activity in the presence of 100 µM F-actin) [3] | Substance
80.2 µM | 0.18 s⁻¹ | 88 µM | 0.77 s⁻¹ | 94.6 µM | 0.81 s⁻¹ | 76.3 nm/s | 94.6 nm/s | 84.2 nm/s | – | – | – | – | human nonmuscle myosin-2A motor domain (residues 1–775) fused with two Dictyostelium discoideum α-actinin repeats (from UniProt P35579 1-775) (domain or fragment)
12.3 µM | 0.35 s⁻¹ | 11.3 µM | 0.75 s⁻¹ | 12.3 µM | 0.53 s⁻¹ | – | – | – | – | – | – | – | human myosin-7A motor domain construct (amino acids 1–747) fused with the artificial lever arm and EYFP (from UniProt Q13402 1-747) (domain or fragment)
82 µM | 0.15 s⁻¹ | 86.9 µM | 0.63 s⁻¹ | 95.1 µM | 0.67 s⁻¹ | 30.1 nm/s | 32.7 nm/s | 35.2 nm/s | 3 fold | – | – | – | human nonmuscle myosin-2B motor domain (residues 1–782) fused with two Dictyostelium discoideum α-actinin repeats (from UniProt P35580 1-782) (domain or fragment)
> 100 µM | – | > 100 µM | – | > 100 µM | – | 51.7 nm/s | 61.2 nm/s | 60.9 nm/s | – | 0.17 s⁻¹ | 0.36 s⁻¹ | 0.53 s⁻¹ | human nonmuscle myosin-2C1 splice variant motor domain (residues 1–807) fused with two Dictyostelium discoideum α-actinin repeats (domain or fragment)
